This data set can be described thus: yeast display, Sf9 membrane polyspecificity reagent, FACS + sequencing; frameworks hold sequencing errors. A digest of the protocol: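 Genes from sorted yeast were amplified by colony PCR, read by MiSeq 2 × 250 sequencing and filtered on CDR length. These cells carried a synthetic nanobody library in Saccharomyces cerevisiae BJ5465 and were sorted by FACS into low and high (top ~1%) gates on anti-HA and streptavidin fluorescence. Polyreactivity is labelled according to the gate of origin.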
As for “QVQLVESGGGLVQAGGSLRLSGAASGFIFSYYAMGWYRQAPGKERELVAAITSGGSTNYADSVKGRFTISRDNAKNTVYLQMNSLKPEDTAVYYCNALYHWGYPHEYNYWGQGTQVTVSS”, the “polyreactivity (PSR sort gate)” value was “low polyreactivity”.

Consider “QVQLVESGGGLVQAGGSLRLSGAASGRIFGTYDMGWYRQAPGKERELVAAINRSAGSTYYADSVKGRITISRDNAKNTVYLQMNSLKPEDTAVYYCAKQPLLFQYLEYDYWGQGTQVTVSS”, for which the “polyreactivity (PSR sort gate)” value is on record as “low polyreactivity”.

In the case of “QVQLVESGGGLVQAGGSLRLSGAASGRTFGYYAMGWYRQAPGKERELVAAISRGGSTYYADSVKGRFTISRDNAKNTVYLQMNSPKPEDTAVYYCAADYWGYGPEMGYWGQGTQVTVSS”, the “polyreactivity (PSR sort gate)” value was “low polyreactivity”.

As for “QVQLVESGGGLVQAGGSLRLSGAASGSTCYYGMGWYRQAPGKYRELVAAISSRGGTPYYADSVKGRFTISRDNAKNTVYLQMTSLKPEDTAVDDCAAPVPYYVPRRNEGDYWGQGTQGTVSS”, the “polyreactivity (PSR sort gate)” value is reported as “low polyreactivity”.

In the case of “QVQLVESGGGLVQAGGSLRLSSAAAGSTFGRYAMGWYRQAPGKEREFVAAITQGGTNTYYADSVKGRFTISRDNAKNTVYLQMNSLKPEDTAVYYCARVRRYPLRYNYWGQGTQVTVSS”, the “polyreactivity (PSR sort gate)” value is given as “high polyreactivity”.

“QVQLVESGGGLVQAGGSLRLSSAASGFIFDFYTMGWYRQAPGKERELVAAITWSGDSTYYADSVKGRFTISRDNAKNTVYLQMNSLKPEDTAVYYCASDLSYNPGYDYWGQGTQVTVSS”: the “polyreactivity (PSR sort gate)” value is on record as “low polyreactivity”.

In the case of “QVQLVESGGGLVQAGGSLRLSSAASGFIFFCYTMGWYRQARGKERELVAAISSTGARTYYADSVKGSFTISRDNAKNTVYLQMNSLKPEDTAFYYCAARLSYQGRGYRFWGQGTQVTVSS”, the “polyreactivity (PSR sort gate)” value is listed as “high polyreactivity”.

For “QVQLVESGGGLVQAGGSLRLSSAASGFIFPAYAMGWYRQAPGKDRELVAAISKSGGRTYYADSVKGRFTISRDNAKNTVYLQMNSLKPEDTAVYYCNKDRYPREQYTWKYAWGYDYWGQGTQVTVSS”, the “polyreactivity (PSR sort gate)” value was “high polyreactivity”.

With “QVQLVESGGGLVQAGGSLRLSSAASGFILNRNAMGWYRQAPGKVRELVAAISKSGGSTYYADSVKGRFTISRDNAKNTVYLQMNRLKPEDTAVYYCAAYTYLGRYEARRDYWGQGTQVTVSS”, the “polyreactivity (PSR sort gate)” value is listed as “high polyreactivity”.

As for “QVQLVESGGGLVQAGGSLRLSSAASGFILRWYAMGWYRQAPGKERELVAAISWSGGSTYYADSVKGRFTISRDNAKNTVYLQMNSLKPEDTAVYYCNAVNYRNKYDYWGQGTQVTVSS”, the “polyreactivity (PSR sort gate)” value is “high polyreactivity”.

Consider “QVQLVESGGGLVQAGGSLRLSSAASGFTFDYYAMGWYRQAPGKERELVAAISTSGGSTYYADSVKGRFTISRDNAKNTVYLQMNSLKPEDTAVYYCNVVFYEYSSVSYDYWGQGTQVTVSS”, for which the “polyreactivity (PSR sort gate)” value is “high polyreactivity”.

On to “QVQLVESGGGLVQAGGSLRLSSAASGFTFKGNALGWYRQAPGKERELVATITQSAGSTYYADSVKGRFTISRDNAKNTVYLQMNSLKPEDTAVYYCNADPITLYYYSWYNYWGQGTQGTVSS”, for which the “polyreactivity (PSR sort gate)” value is given as “low polyreactivity”.

Turning to “QVQLVESGGGLVQAGGSLRLSSAASGFTFLYNAMGWYRQAPGKERELVASIRTGTGTYYADSVKGRFTISRDNAKNNVYLQMISLKPEDTAVYYCAADYRYKSQWWYRRFDYWGQGTQVNVSS”, the “polyreactivity (PSR sort gate)” value is reported as “high polyreactivity”.

On to “QVQLVESGGGLVQAGGSLRLSSAASGFTFRRYAMGWYRQAPGKERELVAAITNSAGSTYYSDSVKGRFTISRDNAKNTVYLQKNSLKPEDTAVYYCVALRSAGAYDYWGQGTQVTVSS”, for which the “polyreactivity (PSR sort gate)” value is recorded as “low polyreactivity”.

Turning to “QVQLVESGGGLVQAGGSLRLSSAASGFTFYLNALGGYRQAPGKERELVAAISSSGGITYYADSVKGRFTISRDNAKNTVYLQMNSLKPEYTAVYYCAAYWPKYRYEADRDYWGQGTQVTVSS”, the “polyreactivity (PSR sort gate)” value is “low polyreactivity”.

For the sequence “QVQLVESGGGLVQAGGSLRLSSAASGFTLIPNGMGWYRQAPGKEREFVAAISGTGGRTSYADSVKGRFTISRDNAKNTVYLQMHSLKPEDTAVYYCNARVLVYSERAYKYYLLYDYWGQGTQVTVSS”, the “polyreactivity (PSR sort gate)” value is recorded as “high polyreactivity”.

Regarding “QVQLVESGGGLVQAGGSLRLSSAASGFTLYRNAMGWNRQAPGKEREFVASITRSGGSTSYADSVKGRFTISRDNAKNTVYLQMNSLKPEDTAVYYCAAAYEYYRWPSEYNYWGQGTQVTVSS”, the “polyreactivity (PSR sort gate)” value is “low polyreactivity”.

Take “QVQLVESGGGLVQAGGSLRLSSAASGGIFFYNTMGWYRQAPGKERELVAAITTNGDSTYYADSVKGRFTISRDTAKYTVYLQMNSLKPEDTAVYYCAAGRRWARWLFPSRYDYWGQGTQVTVSS”: the “polyreactivity (PSR sort gate)” value is recorded as “low polyreactivity”.

For “QVQLVESGGGLVQAGGSLRLSSAASGGTFWIYAMGWYRQAPGKERELVSGITTSGATTYYADSVKGRFTISRDNAKNTVYLQMNRLKPEDTAVYYCAADEYYRYEYWGQGTQVTESS”, the “polyreactivity (PSR sort gate)” value is listed as “low polyreactivity”.

For the sequence “QVQLVESGGGLVQAGGSLRLSSAASGIIFAVYAMGWYRQAPGKERELVAAISTSGGRTYYADSVKGRFTISRDNAKNTVYLQMKSLKPEDTAVYYCAAPLRVSYDGMYYWGQGTQVTVSS”, the “polyreactivity (PSR sort gate)” value was “high polyreactivity”.

Regarding “QVQLVESGGGLVQAGGSLRLSSAASGITFGLYAMGWYRQPPGKERELVADITWSGGSTYYADSVKGRFTISRDNAKNTVYFQMNRLKPEDTAVYYCNADLYADESLFWFALYDYWGQGTQVTVSS”, the “polyreactivity (PSR sort gate)” value was “low polyreactivity”.

As for “QVQLVESGGGLVQAGGSLRLSSAASGITFNLNDMGWSRQAPGKERELVAAITSGGNTSYADSVKGRFTISRDNAKNTVYLQMNSLKPEDTAVYYCPTEDFRTDTGMYYWGQGTQVTVSS”, the “polyreactivity (PSR sort gate)” value is “low polyreactivity”.

On to “QVQLVESGGGLVQAGGSLRLSSAASGITFQAYPMGWYRQAPGKQRELVAAISNGGSTYYADSVKGRFTISRDNAKNTVYLEMNSLNPEDTAVYYCAAVSYYPARYGYWGQGTQVTVSS”, for which the “polyreactivity (PSR sort gate)” value is given as “high polyreactivity”.

Regarding “QVQLVESGGGLVQAGGSLRLSSAASGITYTPNAMGSYRQAPGKEREFVAAISVSGGSTYYADSVKGRFTISRDNAKYTVYLQMNSLKPEDTAVYYCATDFRRYAAKLYRYYYWGLGTQVTVSS”, the “polyreactivity (PSR sort gate)” value was “high polyreactivity”.

For “QVQLVESGGGLVQAGGSLRLSSAASGLIFVFYAMGWYRQAPGKERELVAAISTSGDRTYYADSVKGRFTISRDNAKNTVYLQMNSLKPEDTAVYYCAAGRRKVPYSREYYYWGQGTQVTVSS”, the “polyreactivity (PSR sort gate)” value was “high polyreactivity”.

For the sequence “QVQLVESGGGLVQAGGSLRLSSAASGLIFVHYAMGWSRQAPGKERELVSAISFRGGRTYYADSVKGRFTISRDNAKNTVYVQMNSLKPEDTAVSYCAATIKAYPTPLLGDYWGQGTQVTVSS”, the “polyreactivity (PSR sort gate)” value was “high polyreactivity”.

“QVQLVESGGGLVQAGGSLRLSSAASGNTFWHYAMGWYRQAPGKERELVAAITRSTGSTYYADSVKGRFTISRDNAKYSVYLQMNSLKPEDTAVYYCAADFYRHYFRVDSWGQGTQVTVSS”: the “polyreactivity (PSR sort gate)” value was “low polyreactivity”.

Regarding “QVQLVESGGGLVQAGGSLRLSSAASGRIFAGNAMGWYRQAPGKERELVAVISKGGGRTYYADSVKGRFTISRDNAKNTVYLQMNSLKPEDTAVYDCDAEGSYWFRRYGYWGQGTQVTVSS”, the “polyreactivity (PSR sort gate)” value is recorded as “high polyreactivity”.

Take “QVQLVESGGGLVQAGGSLRLSSAASGRIFGKYAMGWYRQAPGKERELVAAIRITGGSTYYADSVKGRFTISRDNAKNTVYLQMNSLKPEDTAVYYSAAVYKYADVIYDYWGQGTQVTVSS”: the “polyreactivity (PSR sort gate)” value is given as “high polyreactivity”.

For “QVQLVESGGGLVQAGGSLRLSSAASGRIFNPNGMGWYRQAPGKDRELVAVITRSGTSTYYADSVKGRFTISREYAKNTFYRQMYSLKPEDTAVYYCNAGKKYVDYGVLSSRYYWGQGTQVTVSS”, the “polyreactivity (PSR sort gate)” value was “low polyreactivity”.

(Values after the nanobody polyreactivity screen of Harvey et al. (2022).)
